# Results taken from patent US20230257448A1 (TWIST BIOSCIENCE, published 2023).
# B1: 3-31 (Fc fusion)
# chain: EVQLVESGGGLVQPGGSLRLSCAASGSTFSINAMGWFRQAPGKEREFVAGITSSGGYTNYADSVKGRFTISADNSKNTAYLQMNSLKPEDTAVYYCAADGVPEYSDYASGPVWGQGTLVTVSS
# Molecular target: T1, S1 monomer of SARS-CoV-2 Omicron (SARS-CoV-2, UniProt P0DTC2 16-685)
# T1 construct: domain: S1
# Test: SPR (Carterra LSA, antibody amine-coupled to the chip, spike protein as analyte)
binder,measurement,value
B1,binding result,no binding
